Molecular target: Wild-type Aβ (1–40) peptide
Assay: single-molecule fluorescence burst analysis

In the case of Atto655-Aβ40 (peptide), the mean of the oligomer size distribution, μ1 (relative photon number N phot,rel) is reported as 7.4 N¯phot,mon.

Reference: publication PMC6350010
